Measured values taken from US20170258870.

Target: myc-tagged LIMP-2

B1: wild-type β-glucocerebrosidase (GC), human, overexpressed in cells (protein)
chain: ARPCIPKSFGYSSVVCVCNATYCDSFDPPTFPALGTFSRYESTRSGRRMELSMGPIQANHTGTGLLLTLQPEQKFQKVKGFGGAMTDAAALNILALSPPAQNLLLKSYFSEEGIGYNIIRVPMASCDFSIRTYTYADTPDDFQLHNFSLPEEDTKLKIPLIHRALQLAQRPVSLLASPWTSPTWLKTNGAVNGKGSLKGQPGDIYHQTWARYFVKFLDAYAEHKLQFWAVTAENEPSAGLLSGYPFQCLGFTPEHQRDFIARDLGPTLANSTHHNVRLLMLDDQRLLLPHWAKVVLTDPEAAKYVHGIAVHWYLDFLAPAKATLGETHRLFPNTMLFASEACVGSKFWEQSVRLGSWDRGMQYSHSIITNLLYHVVGWTDWNLALNPEGGPNWVRNFVDSPIIVDITKDTFYKQPMFYHLGHFSKFIPEGSQRVGLVASQKNDLDAVALMHPDGSAVVVVLNRSSKDVPLTIKDPAVGFLETISPGYSIHTYLWRRQ
GC enzymatic activity on co-expression with LIMP-2: Upon co-expression of wild-type GC and LIMP-2 we observed a significant increase in GC activity
